Target: GST-GABARAP (human, UniProt O95166 1-117)
Assay: pull-down

GST-GABARAP, sequence (O95166 whole entry): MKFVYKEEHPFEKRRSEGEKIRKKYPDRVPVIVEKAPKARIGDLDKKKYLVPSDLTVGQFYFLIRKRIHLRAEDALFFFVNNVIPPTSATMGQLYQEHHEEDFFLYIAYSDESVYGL

KPHKHLPPAALHLIAYYKENKDREDKR [WSTF peptide PP4 (residues 466-492)]
binding result: binds
